Reference: patent publication US20240132579A1 (DOTBIO PTE, published 2024)

T1: biotinylated murine VEGF-164 (Acro Biosystem) (mouse, UniProt Q00731-2 27-190, biotinylated (site not stated))
T1 construct: also called Mouse VEGF164; murine VEGFA
T1 sequence (looked up): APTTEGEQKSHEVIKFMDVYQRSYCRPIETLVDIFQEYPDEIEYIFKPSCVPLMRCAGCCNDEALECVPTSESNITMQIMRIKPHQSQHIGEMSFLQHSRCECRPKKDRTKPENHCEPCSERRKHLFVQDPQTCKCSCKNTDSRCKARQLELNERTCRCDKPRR

T2: Human VEGF-121 (Acro Biosystems) (human, UniProt P15692 207-395)
T2 construct: Bought protein; also called human VEGFA
T2 sequence: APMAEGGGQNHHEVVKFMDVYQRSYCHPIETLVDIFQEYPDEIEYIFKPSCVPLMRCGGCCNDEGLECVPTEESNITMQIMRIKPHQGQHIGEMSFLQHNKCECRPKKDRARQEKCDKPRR

B1: anti-VEGFA DotBody 16C2.1 (VHH)
VHH: EVQLVESGGGLVQPGGSLRLSCAISGFSLAATDIDWVRQAPGKGLEWVARIFSPSDFTDYADSVKGRFTISADTSKNTVYLQMNSLRAEDTAVYYCGRPDTYAYNIFLDTPTYNALHYRGQGTLVTVSS
notes: Humanized, stabilized autonomous VH domain (single domain antibody, 'DotBody') derived from the trastuzumab VH
B2: anti-VEGFA DotBody 21A5.1 (VHH)
VHH: EVQLVESGGGLVQPGGSLRLSCAISGFSLVETDIDWVRQAPGKGLEWVARIFLPSGSTYYADSVKGRFTISADTSKNTVYLQMNSLRAEDTAVYYCGSPDTYAYNIFLDTPAYKGLSYRGQGTLVTVSS

What was measured:
VEGFA = VEGFA (UniProt P15692-4 27-191, limits assumed); assay: method not stated
[1] = target: T3, Biotinylated human VEGF-165 (Acro Biosystem) (human, UniProt P15692 207-395, biotinylated (site not stated)); assay: BLI, biotinylated VEGF on streptavidin tips, 1:1 global fit
T3 construct: Bought protein; also called human VEGFA
Description: (§1) Binding characterization was performed using BLI (Satorius) at RT with a 1000 rpm flow-rate. Biotinylated human VEGF-165 (Acro Biosystem) was immobilized onto Streptavidin-coated tips at a concentration of 3 μg/mL for 60 sec in BLI buffer (0.1% BSA and 0.01% Tween-20 in PBS). After a 30 sec baseline, anti-VEGFA DotBodies were associated at 8 different concentrations, including a blank reference, in BLI buffer for 60 sec, followed by a 400 sec dissociation in BLI buffer. The background buffer signal was subtracted using the 0 nM concentration reference, and the kinetics of binding were calculated using a global fit following a 1:1 binding model, using BLI Analysis Software. The bivalent molecule 16A2.1×2 was also characterized as described here, but with a 600 sec dissociation. To characterize the binding of all the clones against murine VEGFA, the same procedure was employed, but the immobilized target was replaced with biotinylated murine VEGF-164 (Acro Biosystem).

[2] = target: T1, biotinylated murine VEGF-164 (Acro …); assay: as above
Description: as §1

[3] = target: T2, Human VEGF-121 (Acro Biosystems); assay: competitive ELISA: inhibition of 0.5 nM human VEGF-121 binding to coated VEGFR1 (FIG. 4)
Description: (§2) To perform the competitive ELISA, the VEGFR1 was immobilized at a concentration of 2 μg/mL onto a Maxisorp 96-well plate (Thermo Scientific) overnight at 4° C., washed three times with PBS and blocked for 1 h at RT with ELISA Block Buffer (EBB: 0.2% BSA in PBST). […] The samples were incubated for 2 h at RT, and 50 μL transferred onto the VEGFR1-coated plate. After 2 h incubation, the plate was washed 3 times with PBST. 50 μL of streptavidin-HRP conjugate (Thermo Scientific) was added at a 1:5,000 dilution in EBB, and incubated for 1 h at RT. The plate was washed 5 times with PBST, and developed with 50 μL 3,3′,5,5′-Tetramethylbenzidine (TMB) substrate (GeneTex). After 5-15 min, the reactions were stopped by adding 50 μL of 2M H₂SO₄, and signal was measured at an absorbance of 450 nm.

[4] = target: T2, Human VEGF-121 (Acro Biosystems); assay: competitive ELISA: inhibition of 0.5 nM human VEGF-121 binding to coated VEGFR1 (FIG. 5)
Description: as §2

Binder | Kd (VEGFA) | Kd [1] | koff [1] | kon [1] | Kd [2] | koff [2] | kon [2] | IC50 [3] | IC50 [4]
B1 | < 5 nM | 3 nM | 0.00032 s⁻¹ | 106000 M⁻¹ s⁻¹ | 14.6 nM | 0.00173 s⁻¹ | 118000 M⁻¹ s⁻¹ | 2.3 nM | 1.8 nM
B2 |  | 3.37 nM | 0.000363 s⁻¹ | 105000 M⁻¹ s⁻¹ | 15.3 nM | 0.00128 s⁻¹ | 83600 M⁻¹ s⁻¹ |  | 12.8 nM
